US20040170622A1, “Methods and compositions for modulating XBP-1 activity” (President and Fellows of Harvard College, priority 2002, published 2004)

Key:
IL-6 = IL-6 production by retrovirally transduced wt and XBP-1-/- B cells (ELISA, Northern blot); assay type: cell-based, murine; settings: for secretion of IL-6 compared to control cells: LPS 72 h
Method: (§1) Assays to measure immunoglobulin or cytokine levels in culture supernatants were performed as described (e.g., Hodge et al., 1996 Immunity. 4:397-405 or Science. 1996 274:1903-5).
(§2) The XBP-1 cDNAs for the unspliced (XBP-1u/s) and the spliced (XBP-1s) forms were PCR-amplified from the total RNA of untreated and tunicamycin treated NIH3T3 cells, respectively, with a primer set (5′-[…]-3′ (SEQ ID NO: 7) and 5′-[…]-3′) (SEQ ID NO: 8). XBP-1u form was generated by a PCR-based mutagenesis from XBP-unspliced/s cDNA so that the two G residues at position 532 and 535 were changed to A without changing amino acid sequences in the XBP-1u open reading frame. Numbers are based on the sequences from gene bank database (NM_013842 [gi:13775155]). These XBP-1 cDNAs were inserted into the GFP-RV retroviral vector by using blunt end ligation (Sambrook et al., 1989). EFFECTENE transfection (Quiagen) was used to introduce the DNA into the Phoenix cell line as described by manufacturer (e.g., Reimold et al., 2001 Nature. 412:300-7 or Int Immunol. 2001 13:241-8). Viral supernatants were harvested after 48 hours and frozen at −80° C. for later use. B cells were purified from mouse spleens using CD43 depletion or positive selection with B220+ magnetic beads as described by the manufacturer (MidiMacs, Miltenyi Biotech). B cell purity was generally near 95% as confirmed by flow cytometry. The B cells (10^6 cells /ml) were then activated in culture with LPS 10 μg/ml and F (ab′)2 anti-IgM (5 μg/ml Southern Biotechnology Associates Inc.) for 24 hours. The 1 ml of activated B cells (10^6 cells/ml) were mixed with 4 μg of polybrene and 1 ml of virus-containing supernatant and spun at 1000 g for 45 minutes at 24° C. Cells were incubated for 24-36 h at 37° C. and then GFP+ cells were flow sorted and returned to culture with and without stimulation.
In human multiple myeloma cells, XBP-1 was induced by IL-6 treatment and implicated in the proliferation of malignant plasma cells (Wen et al., 1999). However, no role for IL-6 in upregulating XBP-1 transcripts or in mediating splicing of XBP-1 RNA in mature B cells has been described (FIG. 6A). The ability of XBP-1 to induce IL-6 production in wt and XBP-1^−/− primary B cells was tested. As described above, in vitro activated murine splenic B cells were transduced using retroviruses expressing bicistronic mRNA for XBP-1u/s, XBP-1s, XBP-1u and control GFP. After cell sorting, GFP^+ cells were stimulated with LPS and assayed for cytokine production after 72 h. In FIG. 6 panel (A) purified B cells from wt and XBP-1^−/− mice were activated in culture with LPS 10 μg/ml and F(ab′)2 anti-IgM (5 μg/ml ) for 24 hours. Retroviral transduction with GFP alone (GFP-Rv), XBP-1u/s (XBP-1 u/s GFP Rv), XBP-1s (XBP-1s GFP Rv) or XBP-1u (XBP-1u GFP Rv) of activated B cells was performed. Cells were incubated for 24-36 h at 37° C. and then GFP+ cells were flow sorted and then returned to culture with LPS stimulation (10 μg/ml) for 72 h. Cytokine production was analyzed by ELISA from culture supernatants of stimulated B cells. Experiments were done at least three times and standard deviation is shown. In panel (B) Total RNAs were prepared from stimulated B cells above and XBP-1 mRNA levels were determined by Northern blot analysis with γ-actin control

BCL-1 cells = assay: IgM secretion by retrovirally transduced BCL-1 cells (ELISA); assay type: cell-based
Method: Mouse splenocytes or purified B cells (purified mature B cells were isolated from spleen and lymph nodes by magnetic CD43 depletion or B220 magnetic bead selection, Miltenyi Biotech, Auburn Calif.) were plated at 1×10^6 cells/ml in complete media containing RPMI 1640 supplemented with 10% fetal calf serum (FBS)(Hyclone Laboratories), glutamine (2 mM), penicillin (50 units/ml), streptomycin (50 μg/ml), Hepes (100 mM), nonessential amino acids (1×) sodium pyruvate (1 mM) and β-ME (50 μM) and stimulated with anti-CD40(1 μg/ml)(Pharmigen) or LPS (20 μg/ml)(Sigma). Cytokines (R&D Systems, Minneapolis, Minn.) were used at IL-4 (20 ng/ml), IL-2 (20 ng/ml), Il-5 (20 ng/ml), IL-6 (20 ng/ml ), IL-10 (20 ng/ml ) and IL-13 (20 ng/ml). Stimulated B cells were split to a cell concentration of 1×10^6 cells/ml with fresh media every 24 h. The BCL1 (CWS13.20-3B3 ATCC CRL 1699) cell line was cultured in RPMI media supplemented with 10% FBS, gentamicin (20 μg/ml), and β-ME (50 μM). To induce differentiation cells were plated at 2×10^5 cells/ml and treated with recombinant mouse IL-2 and IL-5 (20 ng/ml) (R&D systems).
as §1
as §2, with “The 1 ml of activated B cells (10^6 cells/ml) were mixed with 4 μg of polybrene and 1 ml of virus-containing supernatant and spun at 1000 g for 45 minutes at 24° C. Cells were incubated for 24-36 h at 37° C. and then GFP+ cells were flow sorted and returned to culture with and without stimulation.” left out

B1: XBP-1s: vector encoding only the spliced form of murine XBP-1, a protein of 371 aa (protein)
chain: MVVVAAAPSAATAAPKVLLLSGQPASGGRALPLMVPGPRAAGSEASGTPQARKRQRLTHLSPEEKALRRKLKNRVAAQTARDRKKARMSELEQQVVDLEEENHKLQLENQLLREKTHGLVVENQELRTRLGMDTLDPDEVPEVEAKGSGVRLVAGSAESAAGAGPVVTSPEHLPMDSDTVASSDSESDILLGILDKLDPVMFFKCPSPESASLEELPEVYPEGPSSLPASLSLSVGTSSAKLEAINELIRFDHVYTKPLVLEIPSETESQTNVVVKIEEAPLSSSEEDHPEFIVSVKKEPLEDDFIPELGISNLLSSSHCLRPPSCLLDAHSDCGYEGSPSPFSDMSSPLGTDHSWEDTFANELFPQLISV
IL-6; XBP-1-/- B cells
  secretion of IL-6 compared to control cells: seven fold
IL-6; XBP-1s transduced cells
  increase in IL-6 gene expression compared to controls (Northern blot): ~5 fold
IL-6; wild type B cells
  secretion of IL-6 compared to control cells: approximately ten-fold
BCL-1 cells; GFP positive BCL-1 cells treated with IL-2 and IL-5 for 3 days
  IgM secretion compared to vector alone controls: approximately fourfold
BCL-1 cells; GFP positive BCL-1 cells untreated with cytokine
  Ig secretion: neither XBP-1u/s nor XBP-1s forms were able to induce Ig secretion
